Assay [1] has as its target T1, C-terminal SH3 domain of Drosophila Drk (Drk-CSH3) (Drosophila, UniProt Q08012 153-211).
T1 construct: Downstream receptor kinase (Drk), Drosophila homologue of GRB2, 211 residues; C-terminal SH3 domain; the solution structure PDB 7Y4N is of this domain
Kind of assay: NMR titration; 2D 1H-15N HSQC of 15N-labelled Drk-CSH3 (0.3 mM), peptide added stepwise up to protein:peptide 1:8; NMR buffer (20 mM KH2PO4/K2HPO4 pH 7.4, 100 mM KCl, 1 mM DTT, 0.05% NaN3); 25 °C; CSPs fitted to a single-binding model, bootstrap 1000 iterations. To be noted: both partners purified.

Assay [2] concerns the target T2, N-terminal SH3 domain of Drosophila Drk (Drk-NSH3) (Drosophila, UniProt Q08012 1-59).
T2 construct: Downstream receptor kinase (Drk), Drosophila homologue of GRB2, 211 residues; N-terminal SH3 domain, residues 1-59; Isolated domain is in equilibrium between a folded and an unfolded state; source: E. coli BL21 (DE3) star, pET-3a, uniformly 15N-labelled, purified (DEAE sepharose, Superdex 75, Resource Q)
The assay is described as follows: NMR titration; 2D 1H-15N HSQC of 15N-labelled Drk-NSH3 (0.3 mM), peptide added stepwise up to protein:peptide 1:8; 20 mM KH2PO4/K2HPO4 pH 7.4, 100 mM KCl, 1 mM DTT, 0.05% NaN3, 10% D2O; 25 °C; CSPs fitted to a conformational selection model (Kd and Kf), bootstrap 1000 iterations. The conditions noted are these: both partners purified.

T2 sequence (Q08012 1-59): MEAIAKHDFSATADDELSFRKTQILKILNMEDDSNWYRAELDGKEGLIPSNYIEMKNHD
T1 sequence (Q08012 153-211): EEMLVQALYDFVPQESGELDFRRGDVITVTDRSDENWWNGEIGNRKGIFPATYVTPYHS

B1: Dos-S2 peptide (Daughter of Sevenless residues 690-702) (peptide)
peptide: GPPSVDRKCKPNA
notes: Daughter of Sevenless (Dos), Drosophila, proline-rich motif PxxxRxxKP in the C-terminal unstructured region, residues 690-702; Thirteen residues; the nine-residue peptide of the earlier study extended by two residues at each end; also called "longer" Dos-S2; source: synthetic peptide, bought: Eurofins Genomics
On to B1, for which the values for the equilibrium dissociation constant (Kd) in assay [1] and in assay [2] were 250 ± 21.5 µM and 242 ± 11.6 µM, respectively.

(Values after paper PMC10532153, “Interactions of the N- and C-Terminal SH3 Domains of Drosophila Drk with the Proline-Rich Peptides from Sos and Dos” (International Journal of Molecular Sciences, 2023).)
